Results: the supplement of paper PMC10567573

B1: TRIM29 (parent)
chain: RKCPVHGKTMELFCQTDQTCICYL

Variants of: B1
Assay: protein stability index of a GFP-peptide fusion (GPS, HEK-293T) (PSI 1-6); higher = more stable
Conditions: c terminus: a fixed tail appended
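Also: lentivirally expressed fusions sorted by FACS into six bins by GFP to DsRed ratio, PSI derived from sequencing read proportions per bin multiplied by bin number.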

Protein stability index: each site, then its substitutions
M10: P 2.35 | C 1.94 | H 2.43 | F 2.58 | Y 1.83 | Q 1.87 | S 2.43 | N 2.14 | L 1.99 | I 3.45 | W 1.46 | A 1.87 | D 2.44 | G 1.65 | E 1.46 | T 1.49 | K 2.02 | R 2.84 | V 1.98
Q18: F 2.71 | C 2.22 | S 1.68 | K 3.94 | L 2.11 | G 2.79 | T 2.36 | D 1.79 | R 1.97 | P 2.7 | Y 1.42 | W 1.56 | E 2.75 | M 2.12 | H 2.18 | V 2.65 | N 1.82 | A 1.73
V5: P 2.87 | Y 2.71 | K 2.3 | L 1.92 | W 2.52 | N 4.09 | H 3.76 | Q 1.59 | I 2.79 | R 2.42 | T 2.46 | M 2.58 | S 3.1
L12: P 2.08 | W 1.08 | F 1.61 | D 2.81 | C 2.81 | K 1.46 | V 2.87 | H 2.66 | I 2.47 | G 1.68 | M 2.98 | R 1.99 | Y 2.86 | A 2.21 | S 2.65 | E 1.53 | T 1.58 | N 1.99
C20: Q 3.07 | D 3.16 | S 2.56 | L 2.28 | W 2.42 | N 3.24 | H 3.04 | V 1.27 | I 1.25 | Y 2.78 | A 3.08 | R 2.38 | M 3.2 | P 1.83 | G 3.31 | K 3.17
Q15: Y 1.92 | G 2.93 | R 1.78 | N 2 | P 2.66 | V 2.75 | T 2.14 | A 2.75 | M 2.43 | C 3.22 | H 2.26 | S 2.48 | D 1.52 | E 1.56 | K 1.79 | L 3.21 | F 3.06 | I 1.88
F13: A 1.78 | T 2.38 | Y 2.32 | G 2.93 | Q 3.27 | L 2.04 | S 2.5 | R 1.96 | I 2.89 | C 2.23 | E 2.47 | M 3.16 | K 2.99 | P 2.4 | H 2.5 | V 2.58 | N 2.72
T19: I 3.16 | W 2.47 | L 1.59 | H 2.95 | E 2.4 | S 2.63 | N 2.16 | C 2.66 | Y 1.89 | Q 2.32 | D 1.6 | M 2.51 | F 1.88 | A 3.62 | V 1.31 | P 2.35 | G 2.42 | K 2.44
C14: M 1.46 | G 1.86 | T 3.06 | K 1.89 | A 2.5 | I 2.41 | P 2 | W 1.89 | S 2.35 | V 1.47 | N 2.33 | H 2.83 | F 3.17 | E 2.77 | Y 2.59 | L 2.27 | D 2.1 | Q 2.03 | R 2.5
E11: L 3.23 | Y 1.8 | N 2.55 | R 2.14 | V 2.9 | I 2.77 | F 1.76 | M 1.7 | T 2.66 | S 2.85 | P 2.95 | K 1.92 | Q 1.47 | A 1.83 | D 2.49 | G 2.31 | W 2.41 | H 2.56
C22: T 2.16 | K 2.04 | Q 2.02 | F 1.31 | N 1.67 | D 2.38 | P 2.27 | Y 1.45 | V 2.9 | W 1.23 | G 1.99 | L 3.09 | H 2.01 | R 1.99 | I 2.81 | M 2.37 | S 2.46 | E 2.58 | A 1.87
G7: T 2.46 | Q 3.09 | M 2.35 | L 2.26 | D 3.12 | F 2.55 | P 2.46 | V 2.04 | I 3.48 | N 3.49 | H 2.38 | W 1.4 | S 2.57 | Y 2.14 | E 2.6 | C 2.5 | A 2.25 | K 1.63
T16: E 1.78 | Y 2.54 | P 2.06 | R 1.91 | M 1.57 | D 2.1 | S 2.34 | I 1.98 | G 3.39 | V 2.6 | L 1.56 | K 2.15 | A 2.24 | C 3.37 | Q 2.91 | W 2.17 | N 2.62 | H 2.44 | F 2.51
Y23: C 4.73 | M 3.38 | E 5.25 | G 4.98 | A 4.28 | R 3.95 | F 1.65 | Q 4.28 | K 4.52 | D 5.55 | L 2.58 | I 2.73 | H 4.24 | S 4.29 | N 4.91 | P 5.16 | T 4.17
K8: F 2.24 | D 1.94 | E 2.59 | T 2.52 | R 2.09 | G 1.59 | Q 2 | Y 1.23 | M 2.45 | L 1.37 | P 1.48 | W 2.77 | S 1.44 | N 2.56 | V 2.54 | I 1.59 | A 2.58 | H 2.83 | C 1.85
I21: V 1.92 | T 3 | F 2.86 | M 2.36 | Y 3.25 | P 2.44 | D 4.33 | S 1.91 | K 2.02 | H 2.98 | G 3.1 | C 3.49 | L 1.73 | Q 3.36 | W 2.78 | A 2.77 | E 4.47 | R 1.88 | N 2.52
T9: I 1.49 | E 2.06 | F 3.32 | S 3.03 | M 2.77 | H 1.78 | A 2.95 | P 1.98 | C 1.75 | V 2.41 | W 2.42 | N 2.79 | Q 1.77 | G 2.72 | R 1.21 | L 2.56 | D 2.81 | K 2.46 | Y 2.25
H6: I 2.37 | L 2.85 | W 1.96 | V 2.44 | R 4.01 | N 3.27 | A 2.38 | C 1.62 | P 1.98 | F 2.31 | G 2.4 | K 2.29 | D 3.05
D17: R 2.8 | L 3.97 | T 1.76 | E 3.12 | K 1.52 | A 2.19 | I 1.79 | S 1.49 | C 2.08 | Y 2.92 | G 2.73 | M 1.93 | P 2.04 | H 1.89 | F 1.49 | Q 1.66 | N 1.7
